As a reminder, the EC50 is the concentration that produces a half-maximal response.

Residue numbers refer to the chain shown, from its start.

For test [1], the target named is human Burkitt's lymphoma cell Daudi. The test is described as follows: flow cytometry (FACS) on Daudi cells, which Example 3 says do not express BCMA. On the procedure:
(§1) Cells (human myeloma cells expressing BCMA or tissue cells not expressing BCMA) were digested, and 500,000 cells were seeded in 50 μL of PBS containing 2% FBS (FACS buffer) in a U-bottom 96-well plate. The test samples were subjected to a 3-fold serial dilution by diluting ⅓ volume (100 μL) in 200 μL of FACS buffer, starting at a concentration of 300 μg/mL (final concentration). 50 μL of the diluted antibody was added to each well of the cell plate and incubated at 4° C. for 1 hour. After washing twice with FACS buffer, 100 μL of secondary antibody (Abcam ab97003, 5 μg/mL, diluted in FACS buffer) was added to each well, and incubated at 4° C. for 0.5 hours. After staining and washing twice with FACS buffer, 200 μL of FACS buffer was added to each well, and reading was performed on the machine (BD C6plus).
A general note: Flow cytometry measures light scatter and fluorescence of single cells or particles in a stream.

Test [2] concerns the target T1, recombinant human BCMA protein (Sino Biological, 10620-H08H) (human, UniProt Q02223 1-54).
T1 construct: Bought protein, coated on the ELISA plate
T1 sequence (looked up): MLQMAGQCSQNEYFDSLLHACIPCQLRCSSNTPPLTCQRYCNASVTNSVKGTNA
The test is described as follows: ELISA, BCMA protein coated at 1 µg/mL, HRP anti-human secondary antibody. On the procedure: The binding activity of the antibodies to human BCMA protein was assessed using an ELISA method, and the antibody potency was compared using dose-dependent binding curves in ELISA.
BCMA protein (Sino Biological, 10620-H08H) was diluted to 1 μg/mL in PBS, 100 μL of the protein solution was added to each well of the ELISA plate and incubated at 4° C. overnight. The plate was washed 3 times in wash buffer (PBS, 0.05% Tween 20), and non-specific sites were blocked by adding 200 μl/w PBS+2% BSA blocking solution. C11D5.3-03, C11D5.3-04 or murine antibody C11D5.3 was added and incubated at 37° C. for 2 h. The plate was washed 3 times in wash buffer, and HRP-conjugated goat anti-human secondary antibody was added and incubated for 1 h at room temperature. The plate was washed 3 times in wash buffer, and the bound secondary antibody was detected by adding TMB (HRP substrate) and incubating the plate in the dark at room temperature for 5 to 10 minutes. The enzymatic reaction was stopped by adding 1M of sulfuric acid solution, and the light absorption at 450 nm was measured.

The target in test [3] is T2, human BCMA expressed on human multiple myeloma cells (U266, MM.1S, RPMI8226) (human, UniProt Q02223 1-184).
T2 construct: whole, on cells; Endogenous BCMA on tumor cell lines; also called BCMA-expressing tumor cells; BCMA+ cell line
T2 sequence (looked up): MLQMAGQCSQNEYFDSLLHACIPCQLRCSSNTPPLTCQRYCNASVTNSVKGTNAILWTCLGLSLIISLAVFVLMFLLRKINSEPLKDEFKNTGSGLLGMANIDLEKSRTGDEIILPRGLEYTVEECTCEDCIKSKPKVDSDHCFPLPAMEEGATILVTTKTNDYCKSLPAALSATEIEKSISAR
The test is described as follows: flow cytometry (FACS) on RPMI8226 cells. On the procedure: as §1

For test [4], the target named is T2, human BCMA expressed on human multiple …. The test is described as follows: flow cytometry (FACS) on MM.1S cells. On the procedure: as §1
Test [5] shares this target. The test is described as follows: flow cytometry (FACS) on U266 cells. On the procedure:
as §1

B1: humanized anti-BCMA antibody C11D5.3-03 (scFv) (scFv, V domains shown)
VH: QIQLVQSGSELKKPGASVKVSCKASGYTFTDYSINWVRQAPGQGLEWMGWINTETREPAYAQGFTGRFVFSLDTSVSTAYLQISSLKAEDTAVYFCALDYSYAMDYWGQGTLVTVSS
VL: EIVLTQSPATLSMSLGERATLSCRASQSVTILGSHLIHWYQQKPGQPPRLLIQLASNVQTGIPARFSGSGSRTDFTLTISSLEEEDFAVYYCLQSRTIPRTFGGGTKVEIK
notes: For the soluble protein it states neither the domain order nor the linker
Regarding B1, the EC50 in test [1] turned out to be 36.3 µg/mL; in test [2], 0.011 µg/mL; in test [3] it was 2.25 µg/mL; in test [4] it was 0.81 µg/mL; in test [5], 7.57 µg/mL.

B2: humanized anti-BCMA antibody C11D5.3-04 (scFv) (scFv, V domains shown)
VH: B1 VH with I34M, A59T
VL: B1 VL with Q27E, V58R, Q59A
notes: as for B1
As for B2, the EC50 was determined as 30.7 µg/mL in test [1]; 0.011 µg/mL in test [2]; 0.82 µg/mL in test [3]; 0.47 µg/mL in test [4]; 1.99 µg/mL in test [5].

B3: murine anti-BCMA antibody C11D5.3 (scFv), reference antibody (scFv, V domains shown)
VH: QIQLVQSGPELKKPGETVKISCKASGYTFTDYSINWVKRAPGKGLKWMGWINTETREPAYAYDFRGRFAFSLETSASTAYLQINNLKYEDTATYFCALDYSYAMDYWGQGTSVTVSS
VL: DIVLTQSPPSLAMSLGKRATISCRASESVTILGSHLIHWYQQKPGQPPTLLIQLASNVQTGVPARFSGSGSRTDFTLTIDPVEEDDVAVYYCLQSRTIPRTFGGGTKLEIK
Regarding B3, the half-maximal effective concentration (EC50) in test [2] was determined as 0.011 µg/mL; in test [3] it was 3.81 µg/mL; in test [4], 1.62 µg/mL; in test [5], 4.4 µg/mL.

The values are drawn from US20220331363A1 (SHANGHAI GENBASE BIOTECHNOLOGY, published 2022).
